Measured values from patent US20140271457A1 (AbbVie / Abbott, published 2014).

Target: Recombinant Human TNF-α/TNFSF1A (human, UniProt P01375 77-233)
Experiment: cell-based or functional assay

Sequence of Recombinant Human TNF-α/TNFSF1A (P01375 77-233 limits assumed): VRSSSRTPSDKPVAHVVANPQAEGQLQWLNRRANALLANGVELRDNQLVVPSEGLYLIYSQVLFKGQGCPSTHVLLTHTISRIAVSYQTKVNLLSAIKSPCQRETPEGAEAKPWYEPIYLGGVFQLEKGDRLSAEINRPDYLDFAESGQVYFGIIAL

Binder	N-Terminal VD huTNFα Neutralization Assay IC50 [pM]	C-Terminal VD huTNFα Neutralization Assay IC50 [pM]
DVD3206 (bispecific antibody, IgG1) VH: EVQLVESGGGLVQPGGSLRLSCAASGFTFSNYGVTWVRQAPGKGLEWVSMIWADGSTHYASSVKGRFTISRDNSKNTLYLQMNSLRAEDTAVYYCAREWQHGPVAYWGQGTLVTVSSASTKGPEVQLVESGGGLVQPGGSLRLSCAASGFSFSKYWLGWVRQAPGKGLEWVSDIYPGYDYTHYNEKFKDRFTISADTSKNTAYLQMNSLRAEDTAVYYCARSDGSSTYWGQGTLVTVSS VL: DIQMTQSPSSLSASVGDRVTITCRASQLVSSAVAWYQQKPGKAPKLLIYWASARHTGVPSRFSGSGSGTDFTLTISSLQPEDFATYYCQQHYKTPFTFGQGTKLEIKRTVAAPSVFIFPPDIQMTQSPSSLSASVGDRVTITCTSSQNIVHSNGNTYLEWYQQKPGKAPKLLIYKVSNRFSGVPSRFSGSGSGTDFTLTISSLQPEDFATYYCFQVSHVPYTFGQGTKVEIKR	1	
DVD3207 (bispecific antibody, IgG1) VH: EVQLVESGGGLVQPGGSLRLSCAASGFTFSNYGVTWVRQAPGKGLEWVSMIWADGSTHYASSVKGRFTISRDNSKNTLYLQMNSLRAEDTAVYYCAREWQHGPVAYWGQGTLVTVSSASTKGPSVFPLAPEVQLVESGGGLVQPGGSLRLSCAASGFSFSKYWLGWVRQAPGKGLEWVSDIYPGYDYTHYNEKFKDRFTISADTSKNTAYLQMNSLRAEDTAVYYCARSDGSSTYWGQGTLVTVSS VL: DIQMTQSPSSLSASVGDRVTITCRASQLVSSAVAWYQQKPGKAPKLLIYWASARHTGVPSRFSGSGSGTDFTLTISSLQPEDFATYYCQQHYKTPFTFGQGTKLEIKRTVAAPDIQMTQSPSSLSASVGDRVTITCTSSQNIVHSNGNTYLEWYQQKPGKAPKLLIYKVSNRFSGVPSRFSGSGSGTDFTLTISSLQPEDFATYYCFQVSHVPYTFGQGTKVEIKR	5	
DVD3208 (bispecific antibody, IgG1) VH: EVQLVESGGGLVQPGGSLRLSCAASGFSFSKYWLGWVRQAPGKGLEWVSDIYPGYDYTHYNEKFKDRFTISADTSKNTAYLQMNSLRAEDTAVYYCARSDGSSTYWGQGTLVTVSSGGGGSGGGGSEVQLVESGGGLVQPGGSLRLSCAASGFTFSNYGVTWVRQAPGKGLEWVSMIWADGSTHYASSVKGRFTISRDNSKNTLYLQMNSLRAEDTAVYYCAREWQHGPVAYWGQGTLVTVSS VL: DIQMTQSPSSLSASVGDRVTITCTSSQNIVHSNGNTYLEWYQQKPGKAPKLLIYKVSNRFSGVPSRFSGSGSGTDFTLTISSLQPEDFATYYCFQVSHVPYTFGQGTKVEIKRGGSGGGGSGDIQMTQSPSSLSASVGDRVTITCRASQLVSSAVAWYQQKPGKAPKLLIYWASARHTGVPSRFSGSGSGTDFTLTISSLQPEDFATYYCQQHYKTPFTFGQGTKLEIKR		172
DVD3209 (bispecific antibody, IgG1) VH: EVQLVESGGGLVQPGGSLRLSCAASGFSFSKYWLGWVRQAPGKGLEWVSDIYPGYDYTHYNEKFKDRFTISADTSKNTAYLQMNSLRAEDTAVYYCARSDGSSTYWGQGTLVTVSSASTKGPEVQLVESGGGLVQPGGSLRLSCAASGFTFSNYGVTWVRQAPGKGLEWVSMIWADGSTHYASSVKGRFTISRDNSKNTLYLQMNSLRAEDTAVYYCAREWQHGPVAYWGQGTLVTVSS VL: DIQMTQSPSSLSASVGDRVTITCTSSQNIVHSNGNTYLEWYQQKPGKAPKLLIYKVSNRFSGVPSRFSGSGSGTDFTLTISSLQPEDFATYYCFQVSHVPYTFGQGTKVEIKRTVAAPDIQMTQSPSSLSASVGDRVTITCRASQLVSSAVAWYQQKPGKAPKLLIYWASARHTGVPSRFSGSGSGTDFTLTISSLQPEDFATYYCQQHYKTPFTFGQGTKLEIKR		536

Other lines, results leading:

N-Terminal VD huTNFα Neutralization Assay IC50 [pM]	C-Terminal VD huTNFα Neutralization Assay IC50 [pM]	Binder
10		DVD3213 (bispecific antibody, IgG1) VH: EVQLVESGGGLVQPGGSLRLSCAASGFTFSNYGVEWVRQAPGKGLEWVSGIWADGSTHYADTVKSRFTISRDNSKNTLYLQMNSLRAEDTAVYYCAREWQHGPVAYWGQGTLVTVSSGGGGSGGGGSEVQLVESGGGLVQPGGSLRLSCAASGFSFSKYWLGWVRQAPGKGLEWVSDIYPGYDYTHYNEKFKDRFTISADTSKNTAYLQMNSLRAEDTAVYYCARSDGSSTYWGQGTLVTVSS VL: DIQMTQSPSSLSASVGDRVTITCKASQLVSSAVAWYQQKPGKAPKLLIYWASTLHTGVPSRFSGSGSGTDFTLTISSLQPEDFATYYCQQHYRTPFTFGQGTKLEIKRGGSGGGGSGDIQMTQSPSSLSASVGDRVTITCTSSQNIVHSNGNTYLEWYQQKPGKAPKLLIYKVSNRFSGVPSRFSGSGSGTDFTLTISSLQPEDFATYYCFQVSHVPYTFGQGTKVEIKR
20		DVD3214 (bispecific antibody, IgG1) VH: EVQLVESGGGLVQPGGSLRLSCAASGFTFSNYGVEWVRQAPGKGLEWVSGIWADGSTHYADTVKSRFTISRDNSKNTLYLQMNSLRAEDTAVYYCAREWQHGPVAYWGQGTLVTVSSASTKGPEVQLVESGGGLVQPGGSLRLSCAASGFSFSKYWLGWVRQAPGKGLEWVSDIYPGYDYTHYNEKFKDRFTISADTSKNTAYLQMNSLRAEDTAVYYCARSDGSSTYWGQGTLVTVSS VL: DIQMTQSPSSLSASVGDRVTITCKASQLVSSAVAWYQQKPGKAPKLLIYWASTLHTGVPSRFSGSGSGTDFTLTISSLQPEDFATYYCQQHYRTPFTFGQGTKLEIKRTVAAPDIQMTQSPSSLSASVGDRVTITCTSSQNIVHSNGNTYLEWYQQKPGKAPKLLIYKVSNRFSGVPSRFSGSGSGTDFTLTISSLQPEDFATYYCFQVSHVPYTFGQGTKVEIKR
	14	DVD3211 (bispecific antibody, IgG1) VH: EVQLVESGGGLVQPGGSLRLSCAASGFSFSKYWLGWVRQAPGKGLEWVSDIYPGYDYTHYNEKFKDRFTISADTSKNTAYLQMNSLRAEDTAVYYCARSDGSSTYWGQGTLVTVSSASTKGPEVQLVESGGGLVQPGGSLRLSCAASGFTFSNYGVTWVRQAPGKGLEWVSMIWADGSTHYASSVKGRFTISRDNSKNTLYLQMNSLRAEDTAVYYCAREWQHGPVAYWGQGTLVTVSS VL: DIQMTQSPSSLSASVGDRVTITCTSSQNIVHSNGNTYLEWYQQKPGKAPKLLIYKVSNRFSGVPSRFSGSGSGTDFTLTISSLQPEDFATYYCFQVSHVPYTFGQGTKVEIKRTVAAPSVFIFPPDIQMTQSPSSLSASVGDRVTITCRASQLVSSAVAWYQQKPGKAPKLLIYWASARHTGVPSRFSGSGSGTDFTLTISSLQPEDFATYYCQQHYKTPFTFGQGTKLEIKR
	39	DVD3212 (bispecific antibody, IgG1) VH: EVQLVESGGGLVQPGGSLRLSCAASGFSFSKYWLGWVRQAPGKGLEWVSDIYPGYDYTHYNEKFKDRFTISADTSKNTAYLQMNSLRAEDTAVYYCARSDGSSTYWGQGTLVTVSSASTKGPSVFPLAPEVQLVESGGGLVQPGGSLRLSCAASGFTFSNYGVTWVRQAPGKGLEWVSMIWADGSTHYASSVKGRFTISRDNSKNTLYLQMNSLRAEDTAVYYCAREWQHGPVAYWGQGTLVTVSS VL: DIQMTQSPSSLSASVGDRVTITCTSSQNIVHSNGNTYLEWYQQKPGKAPKLLIYKVSNRFSGVPSRFSGSGSGTDFTLTISSLQPEDFATYYCFQVSHVPYTFGQGTKVEIKRTVAAPDIQMTQSPSSLSASVGDRVTITCRASQLVSSAVAWYQQKPGKAPKLLIYWASARHTGVPSRFSGSGSGTDFTLTISSLQPEDFATYYCQQHYKTPFTFGQGTKLEIKR
